Assay results as given in publication PMC10889306, “ApoE Isoforms Inhibit Amyloid Aggregation of Proinflammatory Protein S100A9” (International Journal of Molecular Sciences, 2024).
“And” between values parts separate entries of the source, which are not always exact repeats. Identical values can stand only once.

Experiments:
ApoE3 (lipid-free) [1] = molecular target: T1, ApoE3 (lipid-free) (human, UniProt P02649 19-317); assay: cross-linking; native proteins, 4 uM S100A9 and 4 uM ApoE isoform (1:1), preincubated at 4 C overnight; glutaraldehyde at 10- and 100-fold molar excess, 30 min at 4 C, quenched with Tris; SDS-PAGE and Western blot with anti-S100A9 polyclonal antibodies; settings: both partners purified
T1 construct: Apolipoprotein E, isoform ApoE3 (Cys112/Arg158), human; printed as a 299-residue lipoprotein; the methods call the ApoE isoforms full-length; PDB 2L7B (NMR structure of full-length ApoE3) was used for the modelling only; also called Apolipoprotein E3; lipid-free ApoE3; source: bought: AlexoTech AB (recombinant), then size-exclusion chromatography (Superdex 200)

ApoE4 (lipid-free) = molecular target: T2, ApoE4 (lipid-free) (human, UniProt P02649 19-317, Cys112 to Arg112); assay: as above; settings: both partners purified
T2 construct: Apolipoprotein E, isoform ApoE4 (Arg112/Arg158), human; printed as a 299-residue lipoprotein; the methods call the ApoE isoforms full-length; Natural allele APOE e4; differs from ApoE3 only at position 112; also called Apolipoprotein E4; lipid-free ApoE4; source: bought: AlexoTech AB (recombinant), then size-exclusion chromatography (Superdex 200)

ApoE3 (lipid-free) [2] = molecular target: T1, ApoE3 (lipid-free); assay: SDS-stable complex by SDS-PAGE and Western blot; 50 uM S100A9 with 2 uM lipid-free or lipidated ApoE isoform, PBS, 42 C, 70 h, non-stirring; reducing Laemmli buffer, 4-20% gel; Coomassie and Western blot with anti-S100A9 polyclonal antibody (Invitrogen); settings: both partners purified
[3] = molecular target: T3, ApoE3-DOPC (lipidated ApoE3) (human, UniProt P02649 19-317); assay: as above; settings: both partners purified
T3 construct: Apolipoprotein E, isoform ApoE3 (Cys112/Arg158), human; printed as a 299-residue lipoprotein; 'Lipidated full-length ApoE isoforms'; also called DOPC-ApoE3; source: bought: AlexoTech AB (recombinant)

[4] = molecular target: T4, ApoE4-DOPC (lipidated ApoE4) (human, UniProt P02649 19-317, Cys112 to Arg112); assay: as above; settings: both partners purified
T4 construct: Apolipoprotein E, isoform ApoE4 (Arg112/Arg158), human; printed as a 299-residue lipoprotein; 'Lipidated full-length ApoE isoforms'; source: bought: AlexoTech AB (recombinant)

[5] = molecular target: the molecule itself; assay: as above
[6] = molecular target: the molecule itself; assay: SDS-stable complex by Western blot of pellet and SEC fractions; 100 uM S100A9 with 5 uM lipid-free ApoE4, PBS, 42 C, 70 h (methods: 72 h); centrifuged 14,000 rpm 15 min; pellet and Superdex 200 peaks of the supernatant on SDS-PAGE and Western blot with anti-S100A9 polyclonal antibodies (Santa Cruz)

T1 sequence (P02649 19-317): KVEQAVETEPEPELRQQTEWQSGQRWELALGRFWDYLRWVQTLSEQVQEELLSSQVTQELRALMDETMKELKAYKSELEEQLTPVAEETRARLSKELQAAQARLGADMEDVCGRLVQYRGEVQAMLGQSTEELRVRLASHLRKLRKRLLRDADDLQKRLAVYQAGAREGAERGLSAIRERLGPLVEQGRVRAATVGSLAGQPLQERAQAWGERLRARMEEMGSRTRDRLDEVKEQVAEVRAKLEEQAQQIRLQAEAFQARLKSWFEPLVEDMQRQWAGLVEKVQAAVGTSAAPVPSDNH
T2 sequence (P02649 other isoform, or with tags, fused parts or gaps Cys112 to Arg112 | Cys112 to Arg112): as the sequence (P02649 19-317) above, with C112R counted along it
T3 sequence (P02649 19-317): as the sequence (P02649 19-317) above
T4 sequence (P02649 other isoform, or with tags, fused parts or gaps Cys112 to Arg112 | Cys112 to Arg112): as the sequence (P02649 19-317) above, with C112R counted along it

B1: S100A9 (natural protein)
chain: KMSQLERNIETIINTFHQYSVKLGHPDTLNQGEFKELVRKDLQNFLKKENKNEKVIEHIMEDLDTNADKQLSFEEFIMLMARLTWASHEKMHEGDEGPGHHHKPGLGEGTP
notes: 13 kDa monomer on the gels; PDB 5I8N (S100A9 dimer, NMR) was used for the modelling only; also called native S100A9; S100A9 amyloids; source: Escherichia coli, purified as described previously [57]; Superdex 200 gel filtration for the cross-linking
stoichiometry N (ApoE3 (lipid-free) [1]): 2 S100A9 per ApoE
stoichiometry N (ApoE4 (lipid-free)): 1 S100A9 per ApoE and 2 S100A9 per ApoE
stoichiometry N (ApoE3 (lipid-free) [2]): 1 S100A9 per ApoE
stoichiometry N [3]: 1 S100A9 per ApoE
stoichiometry N [4]: 1 S100A9 per ApoE
stoichiometry N [5]: 3
stoichiometry N [6]: 2
